Literature values, collected in article PMC8403128.
Where two headings read alike, the source gives them in different places.

Tests used:
[1] = molecular target: Low-density lipoprotein receptor-related protein 1 (Homo sapiens) (UniProt Q07954)
[2] = molecular target: Low-density lipoprotein receptor-related protein 1 (Homo sapiens) (UniProt Q07954); remark: listed apart in the source

UniProt Q07954, sequence (Q07954 4441-4544): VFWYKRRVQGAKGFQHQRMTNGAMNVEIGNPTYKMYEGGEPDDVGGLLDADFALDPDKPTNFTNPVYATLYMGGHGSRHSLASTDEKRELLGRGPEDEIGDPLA

Kd [1] [nM]	Kd [2] [nM]	Substance
> 1000	–	Matrix metalloproteinase-3 (from UniProt P08254)
–	> 1000	Matrix metalloproteinase-1 (from UniProt P03956)
